Results on four molecules are retold here after PMC5777896 (The FEBS journal, 2017).

B1: full-length human Nfu (natural protein, UniProt Q9UMS0 10-254, looked up)
chain: GAAAVAAGLRRRFCHMLKNPYTIKKQPLHQFVQRPLFPLPAAFYHPVRYMFIQTQDTPNPNSLKFIPGKPVLETRTMDFPTPAAAFRSPLARQLFRIEGVKSVFFGPDFITVTKENEELDWNLLKPDIYATIMDFFASGLPLVTEETPSGEAGSEEDDEVVAMIKELLDTRIRPTVQEDGGDVIYKGFEDGIVQLKLQGSCTSCPSSIITLKNGIQNMLQFYIPEVEGVEQVMDDESDEKEANSP
B2: human Hsc20 (natural protein, UniProt Q8IWL3 72-235, looked up)
chain: DYFSLMDCNRSFRVDTAKLQHRYQQLQRLVHPDFFSQRSQTEKDFSEKHSTLVNDAYKTLLAPLSRGLYLLKLHGIEIPERTDYEMDRQFLIEIMEINEKLAEAESEAAMKEIESIVKAKQKEFTDNVSSAFEQDDFEEAKEILTKMRYFSNIEEKIKLKKIPL

The target in experiment [1] is human HSPA9 (human) (UniProt P38646). Kind of experiment: ITC.
Chain of human HSPA9 (human) (P38646 47-679): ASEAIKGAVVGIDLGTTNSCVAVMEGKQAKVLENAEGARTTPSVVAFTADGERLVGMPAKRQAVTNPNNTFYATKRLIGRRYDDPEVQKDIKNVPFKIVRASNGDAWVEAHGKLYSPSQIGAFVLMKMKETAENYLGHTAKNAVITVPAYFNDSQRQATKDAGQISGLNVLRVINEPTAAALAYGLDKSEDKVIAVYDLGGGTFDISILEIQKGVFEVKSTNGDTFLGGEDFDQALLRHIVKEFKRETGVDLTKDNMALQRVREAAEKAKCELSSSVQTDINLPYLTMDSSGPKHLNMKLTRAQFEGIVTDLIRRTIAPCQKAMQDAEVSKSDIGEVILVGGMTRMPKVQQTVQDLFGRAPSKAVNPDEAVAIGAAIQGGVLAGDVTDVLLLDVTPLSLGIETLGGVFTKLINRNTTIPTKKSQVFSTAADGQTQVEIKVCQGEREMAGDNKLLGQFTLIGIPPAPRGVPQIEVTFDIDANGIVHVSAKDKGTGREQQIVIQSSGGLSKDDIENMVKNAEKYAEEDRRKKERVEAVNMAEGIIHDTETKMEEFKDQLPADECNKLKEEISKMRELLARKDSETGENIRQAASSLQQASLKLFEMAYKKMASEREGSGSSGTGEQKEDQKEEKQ
Experiment [2] has the same target. Kind of experiment: ITC. This is another data set of the same source.
For experiment [3] the target is unchanged. The experiment in a line: ITC. The source holds these as a separate data set.
For experiment [4], the target named is human Hsc20 (human) (UniProt Q8IWL3). Kind of experiment: ITC.
Experiment [5] has as its target human HSPA9 (human) (UniProt P38646).
The target of experiment [6] is human Hsc20 (human) (UniProt Q8IWL3). Kind of experiment: ITC. This is another data set of the same source.
The target of experiment [7] is human HSPA9 (human) (UniProt P38646). The experiment in a line: ITC. The source holds these as a separate data set.
For the next experiment, the target named is IscU (Escherichia coli) (UniProt P0ACD4). The experiment in a line: SPR. To be noted: cited from earlier work.
Chain of IscU (Escherichia coli) (P0ACD4 whole entry): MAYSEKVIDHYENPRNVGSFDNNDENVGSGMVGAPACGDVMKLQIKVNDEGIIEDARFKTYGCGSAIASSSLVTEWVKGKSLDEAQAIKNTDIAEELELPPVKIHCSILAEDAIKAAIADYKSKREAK
Experiment [8] has as its target T1, human HSPA9 (human, UniProt P38646 47-679). Kind of experiment: ITC.
The target in experiment [9] is T2, human HSPA9/Hsc20 complex (human, UniProt P38646 47-679; Q8IWL3 72-235). Kind of experiment: ITC.
T2 sequence (P38646 47-679, one chain of several): as the sequence (P38646 47-679) above
For experiment [10], the target named is T1, human HSPA9. The experiment in a line: ITC. This is another data set of the same source.
The experiment “human Hsc20” addresses B2. The experiment in a line: ITC.
Experiment [11] addresses T1, human HSPA9. The experiment in a line: cell-based or functional assay.
For experiment [12], the target named is T2, human HSPA9/Hsc20 complex. Kind of experiment: ITC. This is another data set of the same source.
For the experiment “full-length human Nfu”, the target named is B1. The experiment in a line: ITC.

Like-named read-outs stand apart in the source and are kept apart here.

T1 sequence (P38646 47-679): as above

With “C-terminal domain of human Nfu (from UniProt Q9UMS0 10-254) (domain or fragment)”, the equilibrium dissociation constant (Kd) with human HSPA9 (human) [1] was found to be 14.9 µM; with human HSPA9 (human) [2], 18 µM; with human HSPA9 (human) [3] it was 51 µM; with human Hsc20 (human) [4] it was 11 µM; with human Hsc20 (human) [6] it was 10 µM; with human HSPA9 (human) [7], 30.3 µM. Further, the dH with human HSPA9 (human) [1] was -3.82 kcal/mol; with human HSPA9 (human) [2], -7.3 kcal/mol; with human HSPA9 (human) [3] it was -3.2 kcal/mol; with human Hsc20 (human) [4], -1.7 kcal/mol; with human Hsc20 (human) [6], -0.57 kcal/mol; in the experiment with human HSPA9 (human) [7], -2 kcal/mol. The stoichiometry N came out at 0.88 in the experiment with human HSPA9 (human) [1], 0.94 with human Hsc20 (human) [4], 0.79 with human Hsc20 (human) [6] and 0.907 with human HSPA9 (human) [7]. For the same molecule, the Vmax (maximum ratio of stimulation) of HSPA9 ATPase activity by C-Nfu, 0~150 µM with human HSPA9 (human) [5] was found to be 2.44 fold.

Regarding HscA (from UniProt P0A6Z1), in the experiment with IscU (Escherichia coli), the Kd was 39 µM.

Regarding B1, the Kd with human HSPA9 [8] is 36 ± 4 µM; in experiment [9], 0.3 ± 0.1 µM; in the experiment with human HSPA9 [10], 8.3 ± 1.4 µM; in experiment [12], 9.43 ± 0.07 µM. In addition, the dH in the experiment with human HSPA9 [8] was -4.9 ± 0.1 kcal/mol; in [9], -3.4 ± 0.1 kcal/mol; with human HSPA9 [10] it was -6.3 ± 0.7 kcal/mol; in experiment [12], -1.7 ± 0.1 kcal/mol. In addition, the “stoichiometry N” value in the experiment with human HSPA9 [8] was 0.9 ± 0.2; in experiment [9], 0.95 ± 0.02; with human HSPA9 [10], 0.9 ± 0.1; in the experiment with human Hsc20, 0.93 ± 0.06; in [12], 0.985 ± 0.04. For the same molecule, the “Vmax (maximum ratio of stimulation) of HSPA9 ATPase activity by Nfu, 0~150 µM” value with human HSPA9 [11] is 3.78 fold.

Consider B2, for which binding with full-length human Nfu was characterised by a dissociation constant (Kd) of 10 ± 1 µM.
